T1: CD81 (UniProt P60033 1-236, limits assumed)
T1 construct: whole, on cells; also called CD81 receptor
T1 sequence (looked up): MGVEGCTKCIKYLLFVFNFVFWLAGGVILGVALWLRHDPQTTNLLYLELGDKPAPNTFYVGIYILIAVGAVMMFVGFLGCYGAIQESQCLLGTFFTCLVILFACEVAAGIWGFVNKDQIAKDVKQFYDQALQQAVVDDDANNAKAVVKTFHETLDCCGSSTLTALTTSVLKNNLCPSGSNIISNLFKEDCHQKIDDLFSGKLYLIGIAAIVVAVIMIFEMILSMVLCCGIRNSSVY

B1: CD81K04 HC K04_JA-13-hVH_1_3 / LC GG-02-hVK_4_1 (antibody, V domains shown)
VH: QVQLVQSGAEVKKPGASVKVSCKASGYTFSSSWMNWVRQAPGQRLEWMGRIYSGDGDAIYNGKFKGRVTITRDTSASTAYMELSSLRSEDTAVYYCAREGKTGDLLLRSWGQGTLVTVSS
VL: DIVMTQSPDSLAVSLGERATINCKSSKSVSTSIYSYMHWYQQKPGQPPKLLIYYASYRESGVPDRFSGSGSGTDFTLTISSLQAEDVAVYYCQHSREFPFTFGQGTKLEIK
notes: human constant region
B2: CD81K04 HC GG-02-hVH_1_69 / LC JA_GG-07-hVK_7_3 (antibody, V domains shown)
VH: QVQLVQSGAEVKKPGSSVKVSCKASGYTFSSSWMNWVRQAPGQGLEWMGRIYSGDGDAIYNQKFQGRVTITADESTSTAYMELSSLRSEDTAVYYCAREGKTGDLLLRSWGQGTLVTVSS
VL: DIVLTQSPASLAVSPGQRATITCRASKSVSTSIYSYMHWYQQKPGQPPKLLIKYASNKDTGVPARFSGSGSGTDFTLTINPVEANDAANYYCLHSREFPYTFGQGTKLEIK
notes: human constant region
B3: CD81K04 HC K04_JA-13-hVH_1_3 / LC JA_GG-09-hVK_4_1 (antibody, V domains shown)
VH: QVQLVQSGAEVKKPGASVKVSCKASGYTFSSSWMNWVRQAPGQRLEWMGRIYSGDGDAIYNGKFKGRVTITRDTSASTAYMELSSLRSEDTAVYYCAREGKTGDLLLRSWGQGTLVTVSS
VL: DIVMTQSPDSLAVSLGERATINCKSSKSVSTSIYSYMHWYQQKPGQPPKLLIKYASTRESGVPDRFSGSGSGTDFTLTISSLQAEDVAVYYCEHSREFPFTFGQGTKLEIK
notes: human constant region
B4: CD81K04 HC JA_GG-13-hVH_1_69 / LC JA_GG-07-hVK_7_3 (antibody, V domains shown)
VH: QVQLVQSGAEVKKPGSSVKVSCKASGGTFSSSWMNWVRQAPGQGLEWMGRIYSGDGDAIYAQKFQGRVTITADESTSTAYMELSSLRSEDTAVYYCAREGKTGDLLLRSWGQGTLVTVSS
VL: DIVLTQSPASLAVSPGQRATITCRASKSVSTSIYSYMHWYQQKPGQPPKLLIKYASNKDTGVPARFSGSGSGTDFTLTINPVEANDAANYYCLHSREFPYTFGQGTKLEIK
notes: human constant region
B5: CD81K04 HC K04_JA-13-hVH_1_3 / LC JA_GG-08-hVK_4_1 (antibody, V domains shown)
VH: QVQLVQSGAEVKKPGASVKVSCKASGYTFSSSWMNWVRQAPGQRLEWMGRIYSGDGDAIYNGKFKGRVTITRDTSASTAYMELSSLRSEDTAVYYCAREGKTGDLLLRSWGQGTLVTVSS
VL: DIVMTQSPDSLAVSLGERATINCKSSKSVSTSIYSYMHWYQQKPGQPPKLLIKYASYLESGVPDRFSGSGSGTDFTLTISSLQAEDVAVYYCEHSREFPFTFGQGTKLEIK
notes: human constant region
B6: CD81K04 HC JA_GG-15-hVH_1_3 / LC JA_GG-07-hVK_7_3 (antibody, V domains shown)
VH: QVQLVQSGAEVKKPGASVKVSCKASGYTFSSSWMNWVRQAPGQRLEWMGRIYSGDGDAIYNGKFKGRVTITADTSASTAYMELSSLRSEDTAVYYCAREGKTGDLLLRSWGQGTLVTVSS
VL: DIVLTQSPASLAVSPGQRATITCRASKSVSTSIYSYMHWYQQKPGQPPKLLIKYASNKDTGVPARFSGSGSGTDFTLTINPVEANDAANYYCLHSREFPYTFGQGTKLEIK
notes: human constant region
B7: CD81K04 HC K04_JA-13-hVH_1_3 / LC GG-03-hVK_4_1 (antibody, V domains shown)
VH: QVQLVQSGAEVKKPGASVKVSCKASGYTFSSSWMNWVRQAPGQRLEWMGRIYSGDGDAIYNGKFKGRVTITRDTSASTAYMELSSLRSEDTAVYYCAREGKTGDLLLRSWGQGTLVTVSS
VL: DIVMTQSPDSLAVSLGERATINCKSSKSVSTSIYSYLAWYQQKPGQPPKLLIYYASYRESGVPDRFSGSGSGTDFTLTISSLQAEDVAVYYCQHSREFPFTFGQGTKLEIK
notes: human constant region
B8: CD81K04 HC K04_JA-13-hVH_1_3 / LC JA_GG-07-hVK_7_3 (antibody, V domains shown)
VH: QVQLVQSGAEVKKPGASVKVSCKASGYTFSSSWMNWVRQAPGQRLEWMGRIYSGDGDAIYNGKFKGRVTITRDTSASTAYMELSSLRSEDTAVYYCAREGKTGDLLLRSWGQGTLVTVSS
VL: DIVLTQSPASLAVSPGQRATITCRASKSVSTSIYSYMHWYQQKPGQPPKLLIKYASNKDTGVPARFSGSGSGTDFTLTINPVEANDAANYYCLHSREFPYTFGQGTKLEIK
notes: human constant region
B9: CD81K04 HC K04_JA_GG-17-hVH_1_3 / LC GG-02-hVK_4_1 (antibody, V domains shown)
VH: QVQLVQSGAEVKKPGASVKVSCKASGYTFSSSWMNWVRQAPGQRLEWMGRIYSGDGDTIYSQKFQGRVTITADTSASTAYMELSSLRSEDTAVYYCAREGKTGDLLLRSWGQGTLVTVSS
VL: DIVMTQSPDSLAVSLGERATINCKSSKSVSTSIYSYMHWYQQKPGQPPKLLIYYASYRESGVPDRFSGSGSGTDFTLTISSLQAEDVAVYYCQHSREFPFTFGQGTKLEIK
notes: human constant region
B10: CD81K04 HC K04_JA_GG-17-hVH_1_3 / LC JA_GG-08-hVK_4_1 (antibody, V domains shown)
VH: QVQLVQSGAEVKKPGASVKVSCKASGYTFSSSWMNWVRQAPGQRLEWMGRIYSGDGDTIYSQKFQGRVTITADTSASTAYMELSSLRSEDTAVYYCAREGKTGDLLLRSWGQGTLVTVSS
VL: DIVMTQSPDSLAVSLGERATINCKSSKSVSTSIYSYMHWYQQKPGQPPKLLIKYASYLESGVPDRFSGSGSGTDFTLTISSLQAEDVAVYYCEHSREFPFTFGQGTKLEIK
notes: human constant region
B11: CD81K04 HC GG-04-hVH_1_69 / LC JA_GG-07-hVK_7_3 (antibody, V domains shown)
VH: QVQLVQSGAEVKKPGSSVKVSCKASGYTFSSSWMNWVRQAPGQGLEWMGRIYSGDGDAIYNQKFQGRATITADESTSTAYMELSSLRSEDTAVYYCAREGKTGDLLLRSWGQGTLVTVSS
VL: DIVLTQSPASLAVSPGQRATITCRASKSVSTSIYSYMHWYQQKPGQPPKLLIKYASNKDTGVPARFSGSGSGTDFTLTINPVEANDAANYYCLHSREFPYTFGQGTKLEIK
notes: human constant region
B12: CD81K04 HC JA_GG-16-hVH_1_3 / LC JA_GG-07-hVK_7_3 (antibody, V domains shown)
VH: QVQLVQSGAEVKKPGASVKVSCKASGYTFSSSWMNWVRQAPGQGLEWMGRIYSGDGDAIYNGKFKGRVTITADTSASTAYMELSSLRSEDTAVYYCAREGKTGDLLLRSWGQGTLVTVSS
VL: DIVLTQSPASLAVSPGQRATITCRASKSVSTSIYSYMHWYQQKPGQPPKLLIKYASNKDTGVPARFSGSGSGTDFTLTINPVEANDAANYYCLHSREFPYTFGQGTKLEIK
notes: human constant region
B13: CD81K04 HC GG-03-hVH_1_69 / LC JA_GG-07-hVK_7_3 (antibody, V domains shown)
VH: QVQLVQSGAEVKKPGSSVKVSCKASGYTFSSSWMNWVRQAPGQGLEWMGRIYSGDGDAIYAQKFQGRVTITADESTSTAYMELSSLRSEDTAVYYCAREGKTGDLLLRSWGQGTLVTVSS
VL: DIVLTQSPASLAVSPGQRATITCRASKSVSTSIYSYMHWYQQKPGQPPKLLIKYASNKDTGVPARFSGSGSGTDFTLTINPVEANDAANYYCLHSREFPYTFGQGTKLEIK
notes: human constant region
B14: CD81K04 HC GG-05-hVH_1_18 / LC JA_GG-07-hVK_7_3 (antibody, V domains shown)
VH: QVQLVQSGAEVKKPGASVKVSCKASGYTFSSSWMNWVRQAPGQGLEWMGRIYSGDGDAIYAQKLQGRVTMTTDTSTSTAYMELRSLRSDDTAVYYCAREGKTGDLLLRSWGQGTLVTVSS
VL: DIVLTQSPASLAVSPGQRATITCRASKSVSTSIYSYMHWYQQKPGQPPKLLIKYASNKDTGVPARFSGSGSGTDFTLTINPVEANDAANYYCLHSREFPYTFGQGTKLEIK
notes: human constant region
B15: CD81K04 HC K04_JA_GG-17-hVH_1_3 / LC GG-04-hVK_4_1 (antibody, V domains shown)
VH: QVQLVQSGAEVKKPGASVKVSCKASGYTFSSSWMNWVRQAPGQRLEWMGRIYSGDGDTIYSQKFQGRVTITADTSASTAYMELSSLRSEDTAVYYCAREGKTGDLLLRSWGQGTLVTVSS
VL: DIVMTQSPDSLAVSLGERATINCKSSKSVSTSIYSYLAWYQQKPGQPPKLLIYYASTRESGVPDRFSGSGSGTDFTLTISSLQAEDVAVYYCQHSREFPYTFGQGTKLEIK
notes: human constant region
B16: CD81K04 HC K04_JA-13-hVH_1_3 / LC GG-04-hVK_4_1 (antibody, V domains shown)
VH: QVQLVQSGAEVKKPGASVKVSCKASGYTFSSSWMNWVRQAPGQRLEWMGRIYSGDGDAIYNGKFKGRVTITRDTSASTAYMELSSLRSEDTAVYYCAREGKTGDLLLRSWGQGTLVTVSS
VL: DIVMTQSPDSLAVSLGERATINCKSSKSVSTSIYSYLAWYQQKPGQPPKLLIYYASTRESGVPDRFSGSGSGTDFTLTISSLQAEDVAVYYCQHSREFPYTFGQGTKLEIK
notes: human constant region
B17: CD81K04 HC K04_JA-13-hVH_1_3 / LC JA_GG-10-hVK_4_1 (antibody, V domains shown)
VH: QVQLVQSGAEVKKPGASVKVSCKASGYTFSSSWMNWVRQAPGQRLEWMGRIYSGDGDAIYNGKFKGRVTITRDTSASTAYMELSSLRSEDTAVYYCAREGKTGDLLLRSWGQGTLVTVSS
VL: DIVMTQSPDSLAVSLGERATINCRASKSVSTSIYSYMHWYQQKPGQPPKLLIKYASYLESGVPDRFSGSGSGTDFTLTISSLQAEDVAVYYCEHSREFPFTFGQGTKLEIK
notes: human constant region
B18: CD81K04 HC JA_GG-14-hVH_1_3 / LC JA_GG-07-hVK_7_3 (antibody, V domains shown)
VH: QVQLVQSGAEVKKPGASVKVSCKASGYTFSSSWMNWVRQAPGQGLEWMGRIYSGDGDAIYNGKFKGRATITADTSASTAYMELSSLRSEDTAVYYCAREGKTGDLLLRSWGQGTLVTVSS
VL: DIVLTQSPASLAVSPGQRATITCRASKSVSTSIYSYMHWYQQKPGQPPKLLIKYASNKDTGVPARFSGSGSGTDFTLTINPVEANDAANYYCLHSREFPYTFGQGTKLEIK
notes: human constant region
B19: CD81K04 HC K04_JA_GG-17-hVH_1_3 / LC JA_GG-09-hVK_4_1 (antibody, V domains shown)
VH: QVQLVQSGAEVKKPGASVKVSCKASGYTFSSSWMNWVRQAPGQRLEWMGRIYSGDGDTIYSQKFQGRVTITADTSASTAYMELSSLRSEDTAVYYCAREGKTGDLLLRSWGQGTLVTVSS
VL: DIVMTQSPDSLAVSLGERATINCKSSKSVSTSIYSYMHWYQQKPGQPPKLLIKYASTRESGVPDRFSGSGSGTDFTLTISSLQAEDVAVYYCEHSREFPFTFGQGTKLEIK
notes: human constant region
B20: CD81K04 HC K04_JA_GG-17-hVH_1_3 / LC JA_GG-10-hVK_4_1 (antibody, V domains shown)
VH: QVQLVQSGAEVKKPGASVKVSCKASGYTFSSSWMNWVRQAPGQRLEWMGRIYSGDGDTIYSQKFQGRVTITADTSASTAYMELSSLRSEDTAVYYCAREGKTGDLLLRSWGQGTLVTVSS
VL: DIVMTQSPDSLAVSLGERATINCRASKSVSTSIYSYMHWYQQKPGQPPKLLIKYASYLESGVPDRFSGSGSGTDFTLTISSLQAEDVAVYYCEHSREFPFTFGQGTKLEIK
notes: human constant region

The source of these data is patent publication US20200377590A1 (Hoffmann-La Roche, published 2020).

The test addresses T1, CD81. The test is described as follows: cell ELISA.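 Note: antibody binding to HuH7 cells expressing CD81 versus a CD81-negative HuH7 control line, bound antibody detected by secondary reagent, absorbance at 450 nm with 620 nm reference.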
On to B1, for which the ELISA data turned out to be 0.475.
Then B2, with 0.13.
The same measure for B3: 0.864; for B4: 0.087; for B5: 0.985.
Molecule B6 gave an ELISA data of 0.262.
In turn, B7 showed an ELISA data of 0.423.
For the molecule B8, the ELISA data amounted to 0.255.
The molecule B9 returned an ELISA data of 0.709.
In the case of B10, the ELISA data was determined as 0.941.
Molecule B11 showed an ELISA data of 0.12.
In turn, B12 gave an ELISA data of 0.161.
The same measure for B13: 0.091; for B14: 0.14.
Molecule B15 yielded an ELISA data of 0.189.
The same measure for B16: 0.152.
B17: the ELISA data was 0.861.
Turning to B18, the ELISA data was found to be 0.154.
Consider B19, for which the ELISA data amounted to 0.911.
Turning to B20, the ELISA data was 0.855.
